Data from the supplement of paper PMC9170038.

Test system: MS2 coat protein
Assay: apparent KD of MS2 coat protein; higher = weaker reporter binding
Conditions: Eterna round: R107
Protocol: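 RNA-MaP round R107: designed RNA switches with theophylline, tryptophan, arginine or FMN aptamers are transcribed on-chip within common flanks. They are titrated with SNAP-549-labelled MS2 coat protein in RNA-MaP buffer (100 mM Tris pH 7.5, 80 mM KCl, 4 mM MgCl2), without ligand or with the indicated ligand. Median apparent KD per design.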

[1] = input ligand: theophylline 20 uM
[2] = input ligand: theophylline 2 mM
[3] = input ligand: tryptophan 2.4 mM

Sequence | apparent KD of MS2 coat protein (input ligand: arginine 13.2 mM) [µM] | apparent KD of MS2 coat protein (input ligand: none) [µM] | apparent KD of MS2 coat protein [1] [µM] | apparent KD of MS2 coat protein [2] [µM] | apparent KD of MS2 coat protein [3] [µM]
GAAUAAAGUAGAACACAAGACUCCUGAGAAGGAGCGCAGUCAACUGCAGGUAGGUCGCUCAGGAACACAUGAGGAUCACCCAUGU [Disoonlate] | 0.0169 | 0.0266 | 0.0304 | 0.0323 | 0.0239
AUUUACAUGGUCAUAUAUAUAUCGUCAGAUACCAGACUAGAUAUAGUCCCUUGGCAGCUGUUACAUGAGGAUCACCCAUGUUAUA [JR_Nu_ExcTheophyA_Sub019] | 0.0418 | – | 0.0958 | – | 0.109
ACAUGAGGAUCACCCAUGUUAAGCACAGAAGGAGCGUGAAGAAACACAGGUAGGUCGCUGUACUUAUCGAGCGUUAGCUCGAUAC [JR_Nu_SSArginiA_Sub029] | 0.0137 | 0.0231 | 0.029 | 0.0264 | 0.0209
GAUGAACUAUUUGAUACCAGACUACAUGAGGAUCACCCAUGUGUGUUUAUACUUCUGUCAGUCCCUUGGCAGCAAAUAGUUUAUC [XTheo B #4] | 0.0473 | – | 0.0952 | – | 0.0404
CCGUUUUAUGGCGACAUAGGGCGGACUGAAGGAGCGGGAUAAAACCCAGGUAGGUCGCAGAGAUCCACAUGAGGAUCACCCAUGU [!0.X] | 0.0359 | 0.038 | 0.0545 | 0.0328 | 0.0359
GGUUACUCUACGGCCGCCACUGUCAUGUAAAGAUACCUGUACAUGACAUGAGGAUCACCCAUGUGCAGGACCGGGUAGUGUAACC [Tryptophan B 18] | 0.0913 | – | 0.177 | 0.201 | –
AUGCGGUGCGGAAGGAGCGAGUUUGCCUAUUUACAUGAGGAUCACCCAUGUCCUAAUGGGACUCAGGUAGGUCGCCGUUGUUGCA [Same State Arginine B GF30] | 0.042 | 0.045 | 0.0714 | 0.0479 | 0.0416
UCGCCCAGGUAGGAUUGAUGGGAUAUGGAAGGAGCGCUGAUGCCAGCAGGUAGGUCGCCAACGGACAUGAGGAUCACCCAUGUAC [Same State - Arginine A (Freestyle 5)] | 0.0165 | 0.0187 | 0.0346 | 0.0283 | 0.0252
GGUUGGUCCUCACAUGAGGAUCACCCAUGUCGAGGACCGGUACGGCCGCCACUCGAUUGUACCAGGGCUUAAGAGCCUAUGAGCA [Erenedquce] | 0.0126 | – | 0.0239 | 0.0176 | –
AUAGUUAUCAGAAGGAGCGUCAUUAACAUGAGGAUCACCCAUGUAACAUUGAAUUCGAUGAGACAGGUAGGUCGCUGAAUAUUAA [SS-ArgB28] | 0.0323 | 0.0396 | 0.048 | 0.0417 | 0.036
UGUCAGCGAAAGUUGACAUGUCUUACCGGUCGAGGACCGGUACGGCCGCCACUCGAUCUCUCGCACAUGAGGAUCACCCAUGUUG [SS Tryp A #22] | 0.0193 | – | 0.029 | 0.0265 | –
ACAUGAGGAUCACCCAUGUCACGGCACGAUACCAGCUGAUCCGGUGGCCCUUGGCAGCGUCACGUUUGGUCCCGCGGAUGACACG [klmmullin] | 0.0294 | – | 0.0896 | – | 0.0655
AAUGUAUGGCACAUGAGGAUCACCCAUGUGCGAGGACCGGUACGGCCGCCACUCGGUCCUGGGAUCUUACCACUAUACAUUAAUG [XTryp A #21] | 0.0102 | – | 0.0148 | 0.0113 | –
AGUGUCGGAGCGGCCGCCACUAGCACAUCUGGUCGCCAUGGCAACAUGAGGAUCACCCAUGUUGCUAGGACCGGGCUCAAUAUUU [Maengele] | 0.00837 | – | 0.0109 | 0.0088 | –
UUCAGCUAGUCGGCCGCCACUACUUGAGGAUCACCCAGGUAAUCCUAACACUGCUUCGGCAGUGGUAGGACCGGGACUAGCUGAG | 0.024 | 0.019 | 0.0216 | 0.0245 | 0.103
GGUGUAAUUGACUCUUUGUUUUAUUUGUAACGAGGACCGGUACGGCCGCCACUCGAUAUUCACAUGAGGAUCACCCAUGUUAGCU [JR_ExcTryptoA_Sub006] | 0.0191 | – | 0.0225 | 0.0243 | –
GGGUUACUCUAUGAUACCAGUUCCAUGCCGAAACCUGUGUACAUGAGGAUCACCCAUGUGAACCCUUGGCAGCAUUAAUCAACUG [theeternabot_exclusion_MS2_Theo_B_35] | 0.0515 | – | 0.163 | – | 0.0695
UGUAUGUGAAGUGAUACCAGUCCAUAAACUGGAACAUGAGGAUCACCCAUGUAAUGGGUGGACCCUUGGCAGCACUUCUCAUACU [First try] | 0.048 | – | 0.468 | – | 0.19
CCCUCGUCAACGGCCGCCACUGUGAUUCACUAAGAUAAUAUUGCACAUGAGGAUCACCCAUGUCUCAGGACCGGGUUGGUGUGUC [theeternabot_sameState_MS2_Trp_B_38] | 0.082 | – | 0.128 | 0.131 | –

Sequence | apparent KD of MS2 coat protein (input ligand: arginine 13.2 mM) [µM] | apparent KD of MS2 coat protein (input ligand: none) [µM] | apparent KD of MS2 coat protein [1] [µM] | apparent KD of MS2 coat protein [2] [µM] | apparent KD of MS2 coat protein [3] [µM]
UUAAUCAUAUAAGAAAACUUAUAUGCAGAAGGAGCGUGAUAAAACACAGGUAGGUCGCUGAAGGGAACAUGAGGAUCACCCAUGU [AstrosSSArgA#7] | 0.028 | 0.0234 | 0.0362 | 0.0324 | 0.0288
AAUCUGUCGGGUGAUACCAGCCUCGGCGCAUCUCGCACCGAACAUGAGGAUCACCCAUGUGGCCCUUGGCAGCACAUGACAAAUC [Ermateus] | 0.113 | – | 0.767 | – | 0.654
UGUUUUGUGAUGGAUACCAGCAGAGAAAACGUUUAUCCUAACAUGAGGAUCACCCAUGUAUGCCCUUGGCAGCUGUUGUGGGAUA [8.R] | 0.0272 | – | 0.0439 | – | 0.0279
AGCCAUGGAAACAUGGCGGCGGCAUGAGCGCGAGGACCGGUACGGCCGCCACUCGGGCGACAUGAGGAUCACCCAUGUUCCUCAA [ETA NP+V+V2 #21] | 0.0272 | 0.0275 | 0.0541 | 0.0382 | 0.34
CUAUAAGUACCGGUCCUCAGAUCCUCAUGACGAGGACCGGUACGGCCGCCACUCGAAACAUGAGGAUCACCCAUGUAAUAAUAUC [Brourdmod13] | 0.0186 | – | 0.0434 | 0.0441 | –
GGUGGUGUGACGGAUACCAGCCACCGCGGCAACGCAACAUGAGGAUCACCCAUGUUGGGUGGCCCUUGGCAGCUGUCGUGCGGCG [#1 Same State - Theophylline B Attempt #24 (HarryS)] | 0.0401 | – | 0.0912 | – | 0.0539
GGAUGCGGCACGGCCGCCACUGCGGUGGUGUGACAUGAGGAUCACCCAUGUUGUCAUGCGGCCCUUAGGACCGGGUGGCGUUUCC [#1 Exclusion - Tryptophan B Attempt #20 (HarryS)] | 0.038 | 0.0567 | 0.0736 | 0.0667 | 0.0629
UAGACGGCCGGAAGGAGCGGUACAUGAGGAUCACCCAUGUACCUCUGGGCAUCCGUAGUGUGCCAGGUAGGUCGCCGGUUGCGGG [Tebecela] | 0.0126 | 0.0116 | 0.0125 | 0.0114 | 0.0137
UCUUUCUAUAGUGAUACCAGACGUACAUGAGGAUCACCCAUGUUACAUUCUUGGUUAAAAGUCCCUUGGCAGCACGAUUUGUUCG [JR_Nu_ExcTheophyB_Sub027] | 0.0097 | – | 0.0109 | – | 0.0103
UGAUGGUGCUGAAGGAGCGUGUAAGAACAAGAACAUGAGGAUCACCCAUGUAUUAAUUUAACACAGGUAGGUCGCGGUGUUAUUG [11.L] | 0.0305 | 0.0254 | 0.0425 | 0.0458 | 0.0197
CUGCCUGCCUCACAUGAGGAUCACCCAUGUCGAGGACCGGUACGGCCGCCACUCGUCGUCGGUAAUACAGGCAUUGAAUAAUAUA [Esgeusla] | 0.00988 | – | 0.0145 | 0.0119 | –
UCGUGUAAAACGGAUACCAGUGAGAAGGAUACAUGAGGAUCACCCAUGUGAGUUGAUCCACACCCUUGGCAGCUGUAUAUAUCUA [ozomullin] | 0.105 | – | 0.185 | – | 0.122
GGCUUCAACUCGGCCGCCACUGGUGAUCCUCAUGUACAUGAGGAUCACCCAUGUACAUGAGACUACAGGACCGGGAGAUCAGCAA [Tryptophan B] | 0.0105 | – | 0.0288 | 0.0225 | –
UGUAUGUGAUCUGAUACCAGCGUUGAUAACCUGAGGAUCACCCUGGUAAGGCGAAAGCCGCGCCCUUGGCAGCAGAUCGCAUACU | 0.169 | 0.237 | 0.0839 | 0.0233 | 0.26
UGAUCCUACAGAGAUACCAGUGCCACUAAAUAACUAAACACAUGAGGAUCACCCAUGUAACACCCUUGGCAGCUCAACUAAAGGG [Same State Theophylline B GF16] | 0.0197 | – | 0.0255 | – | 0.0268
CAAAAUUUAACGGCCGCCACUUACUCAUGAGGUAACAACAUGAGGAUCACCCAUGUUUGAGGAUCAAGGACCGGGUUAAAUUUUG [AstrosSSTry#20] | 0.0266 | – | 0.0339 | 0.0307 | –
UUUGAGAUAACAGAUACCAGCGUGUUAUAAAACAUGAGGAUCACCCAUGUAGUGAUCAAGCGCCCUUGGCAGCUGGUAUUUUAGG [7.G] | 0.0703 | – | 0.186 | – | 0.146
AUGCGCUAUAUGGAUACCAGUAUGAUAAUUGACAUGAGGAUCACCCAUGUGAGCUCUACCUACCCUUGGCAGCCAACCCUAUUUG [theeternabot_sameState_MS2_Theo_B_26] | 0.0217 | – | 0.0299 | – | 0.023
UUCAGCUAGUCGGCCGCCACUGCAUGAGGAUCACCCAUGUAGGUCCACACUGCUUCGGCAGUGAGUAGGACCGGGACUAGCUGAG | 0.0114 | 0.00941 | 0.0129 | 0.0108 | 0.0137
